Reference: patent publication US20210324050A1 (VANDERBILT UNIVERSITY, published 2021)

T1: GII.4 Houston 2002 (ABY27560.1) VLPs (human norovirus GII.4 Houston 2002, UniProt P54635 1-539)
T1 construct: also called GII.4 Houston 2002 antigen; GII.4 Houston VLPs
T1 chain: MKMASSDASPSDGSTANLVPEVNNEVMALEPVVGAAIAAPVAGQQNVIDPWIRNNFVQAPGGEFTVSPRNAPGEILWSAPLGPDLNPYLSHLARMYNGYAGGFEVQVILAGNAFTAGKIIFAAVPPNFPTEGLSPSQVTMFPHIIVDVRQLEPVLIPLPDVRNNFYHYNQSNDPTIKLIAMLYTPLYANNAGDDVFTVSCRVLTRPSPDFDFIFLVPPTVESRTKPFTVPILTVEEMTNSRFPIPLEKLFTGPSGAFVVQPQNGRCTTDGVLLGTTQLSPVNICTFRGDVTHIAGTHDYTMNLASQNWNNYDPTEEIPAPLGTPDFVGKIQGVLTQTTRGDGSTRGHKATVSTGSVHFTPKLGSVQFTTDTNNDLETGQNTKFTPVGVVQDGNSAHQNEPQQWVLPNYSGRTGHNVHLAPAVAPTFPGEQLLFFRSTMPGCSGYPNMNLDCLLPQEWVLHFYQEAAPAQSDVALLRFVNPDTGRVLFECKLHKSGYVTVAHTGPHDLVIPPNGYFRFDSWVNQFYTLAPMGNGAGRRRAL

T2: GII.4 Sydney 2012 virus-like particles (VLPs), based on strain AFV08795.1 (human norovirus GII.4 Sydney 2012, UniProt P54635 1-538)
T2 construct: also called GII.4 VLPs
T2 chain: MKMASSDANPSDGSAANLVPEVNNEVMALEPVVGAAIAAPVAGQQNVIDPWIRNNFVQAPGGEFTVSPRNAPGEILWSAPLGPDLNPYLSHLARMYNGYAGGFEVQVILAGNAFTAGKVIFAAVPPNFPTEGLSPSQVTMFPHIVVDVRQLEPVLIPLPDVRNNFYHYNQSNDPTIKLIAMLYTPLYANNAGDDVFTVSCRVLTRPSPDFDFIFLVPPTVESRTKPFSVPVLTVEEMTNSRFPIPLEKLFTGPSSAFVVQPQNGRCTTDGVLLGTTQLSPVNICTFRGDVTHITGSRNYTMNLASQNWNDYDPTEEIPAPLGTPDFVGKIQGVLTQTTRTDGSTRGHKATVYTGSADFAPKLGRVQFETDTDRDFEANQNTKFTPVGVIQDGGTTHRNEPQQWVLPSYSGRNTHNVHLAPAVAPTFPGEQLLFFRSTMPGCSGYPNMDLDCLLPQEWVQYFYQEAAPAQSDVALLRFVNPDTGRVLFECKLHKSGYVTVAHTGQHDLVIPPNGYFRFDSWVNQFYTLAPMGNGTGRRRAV

T3: GI.1 (M87661) VLPs (norovirus GI.1, UniProt Q83884 1-530; Q83885 1-212)
T3 sequence (VP1): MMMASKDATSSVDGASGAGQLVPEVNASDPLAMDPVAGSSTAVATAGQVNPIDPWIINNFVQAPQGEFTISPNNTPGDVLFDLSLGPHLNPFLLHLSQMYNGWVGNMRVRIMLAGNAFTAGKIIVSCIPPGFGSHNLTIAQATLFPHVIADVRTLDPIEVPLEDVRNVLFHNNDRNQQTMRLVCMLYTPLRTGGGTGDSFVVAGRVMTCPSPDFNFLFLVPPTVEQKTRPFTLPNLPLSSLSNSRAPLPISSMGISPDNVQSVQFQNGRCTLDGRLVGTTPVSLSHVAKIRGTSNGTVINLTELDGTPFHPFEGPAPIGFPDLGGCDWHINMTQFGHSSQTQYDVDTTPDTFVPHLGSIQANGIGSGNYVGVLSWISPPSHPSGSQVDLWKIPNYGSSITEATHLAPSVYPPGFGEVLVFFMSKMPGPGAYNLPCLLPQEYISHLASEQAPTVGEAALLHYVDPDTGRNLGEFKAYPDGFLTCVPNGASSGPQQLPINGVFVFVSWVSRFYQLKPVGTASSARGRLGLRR
T3 sequence (VP2): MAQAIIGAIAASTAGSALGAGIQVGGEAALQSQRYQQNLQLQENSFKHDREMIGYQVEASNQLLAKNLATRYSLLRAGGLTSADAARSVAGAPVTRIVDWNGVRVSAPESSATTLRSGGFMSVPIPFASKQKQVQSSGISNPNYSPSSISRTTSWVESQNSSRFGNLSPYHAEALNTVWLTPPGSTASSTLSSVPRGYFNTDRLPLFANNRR

T4: GII.4 Sydney 2012 shell (S) domain (human norovirus GII.4 Sydney 2012, UniProt P54635 1-221 (Lordsdale virus entry), limits assumed)
T4 construct: Recombinant S domain particles (pVL1392, baculovirus, Sf9); the whole VP1 entry is named; also called GII.4 S domain
T4 chain: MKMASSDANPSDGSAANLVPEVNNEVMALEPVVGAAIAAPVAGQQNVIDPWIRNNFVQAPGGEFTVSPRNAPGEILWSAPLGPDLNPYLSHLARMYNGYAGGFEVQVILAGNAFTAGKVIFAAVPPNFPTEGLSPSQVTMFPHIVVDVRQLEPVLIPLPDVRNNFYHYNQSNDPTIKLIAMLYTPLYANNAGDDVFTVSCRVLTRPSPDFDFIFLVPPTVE


What was measured:
[1] = target: T1, GII.4 Houston 2002 (ABY27560.1) VLPs; assay: ELISA on GII.4 Houston 2002 VLPs
[2] = target: T2, GII.4 Sydney 2012 virus-like particles …; assay: indirect ELISA on coated GII.4 Sydney 2012 VLPs
[3] = target: T3, GI.1 (M87661) VLPs; assay: indirect ELISA on VLPs
[4] = target: T1, GII.4 Houston 2002 (ABY27560.1) VLPs; assay: ELISA on GII.4 Houston 2002 VLPs against ELISA on GII.4 Sydney 2012 VLPs
[5] = target: T4, GII.4 Sydney 2012 shell (S) domain; assay: indirect ELISA on recombinant P and S domains

Row | Binder | binding result [1] | EC50 [2] [µg/mL] | binding result [3] | fold higher binding EC50 compared to GII.4 Sydney 2012 VLPs [4] [fold] | binding result [5]
1 | NORO-202A.1 (antibody, V domains shown) VH: QVQLVQSGAEVKKPGASVKVSCKASEYTFTGYYLQWVRQAPGHGLEWMGWINPSGGTKYSQKFQGRVTMTRDTSITTVYMELSRLRSDDTAVYYCARDLLRNWGDHDAFDVWGQGTMVTVSS VL: QSVLTQPPSASETPGQGVTISCSGSSSNIGSNFVCWYQQVPGTAPKLLIYKNNQRPSGVPDRFSGSKSGTSASLAISGLRSEDEADYYCSAWDDSLSGPVFGGGTKLTVL | binds | 0.4 | no binding (tested: 500 nM) |  | 
2 | NORO-115 (antibody, V domains shown) VH: QVQLVESGGGLVKPGGSLRLSCTASGITISGYYMSWIRQAPGKGLEWIVYINTSGRTIYYADSVKGRFSVSRDNAKESLYLQMDSLTVDDTGIYYCARDRLPASGSHWFHPWGQGTLVTVSS VL: DIVMTQSPDSLAVSLGGRATINCKSSQSVLYTSDNKNYLAWYQQQPGQPPKLLISWASTRESGVPDRFSGSGSGTDFTLTISNLQAEDVAVYYCQQYYNSPLAFGGGTKVEIK |  |  |  | > 10 | 
3 | NORO-156.3 (antibody, V domains shown) VH: QVQLQQWGAGLLKPSETLSLTCAVYGGSFSGYYWSWIRQPPGKGLEWIGEINHSGSTNYNPSLKSRVTISVDTSKNQFSLKLSSVTAADTAVYYCARGLMDVWGQGTLVTVSS VL: AIRMTQSPSSFSASTGDRVTITCRASQGISSYLAWYQQKPGKAPKLLIYAASTLQSGVPSRFSGSGSGTDFTLTISCLQSEDFATYYCQQYYSYPRTFGQGTKLEIK |  |  | binds |  | no binding (tested: 500 nM)
